Measured values from paper PMC8674358, “Decoding non-canonical mRNA decay by the endoplasmic-reticulum stress sensor IRE1α” (Nature Communications, 2021).

B1: IRE1-KR-R887A, unphosphorylated (domain or fragment, human, UniProt O75460 547-977, looked up)
chain: GSSPSLEQDDGDEETSVVIVGKISFCPKDVLGHGAEGTIVYRGMFDNRDVAVKRILPECFSFADREVQLLRESDEHPNVIRYFCTEKDRQFQYIAIELCAATLQEYVEQKDFAHLGLEPITLLQQTTSGLAHLHSLNIVHRDLKPHNILISMPNAHGKIKAMISDFGLCKKLAVGRHSFSRRSGVPGTEGWIAPEMLSEDCKENPTYTVDIFSAGCVFYYVISEGSHPFGKSLQRQANILLGACSLDCLHPEKHEDVIARELIEKMIAMDPQKRPSAKHVLKHPFFWSLEKQLQFFQDVSDRIEKESLDGPIVKQLERGGRAVVKMDWRENITVPLQTDLAKFRTYKGGSVRDLLRAMRNKKHHYRELPAEVRETLGSLPDDFVCYFTSRFPHLLAHTYRAMELCSHERLFQPYYFHEPPEPQPPVTPDAL
notes: IRE1α, human, kinase-endoribonuclease (KR) module, residues G547-L977, with R887A; also called unphosphorylated R887A; source: SF9 cells, purified in-house following the same procedure as IRE1α KR; not shown: His6, N-terminal, cleaved
B2: IRE1-KR-R887A, phosphorylated (domain or fragment, human, UniProt O75460 547-977, looked up)
chain: B1 chain
modifications: phosphorylated (allowed to autophosphorylate in the presence of ATP and MgCl2); sites not stated for this mutant
notes: IRE1α, human, kinase-endoribonuclease (KR) module, residues G547-L977, with R887A; also called phosphorylated IRE1-KR-R887A; IRE1-KR-3P R887A; source: SF9 cells, purified in-house following the same procedure as IRE1α KR; autophosphorylated with 2 mM ATP and 10 mM MgCl2, then SEC; not shown: His6, N-terminal, cleaved

Biological target: the molecule itself
Experiment: cross-linking; 1 μg IRE1-KR (~0.8 μM) or various concentrations in RNA cleavage buffer (20 mM HEPES pH 7.5, 50 mM K acetate, 1 mM Mg acetate, 0.05% Triton X-100), 250 μM DSS, 1 h on ice; SDS-PAGE and IRE1α immunoblot; also with CRUK-3 (5 µM), which augmented KR-0P dimerization and oligomerization

Protein	stoichiometry N
B1	2
B2	2
